# Source: publication PMC5709234 (Journal of the American Society for Mass Spectrometry, 2017)
# Where “and” joins values, the source holds several entries; their conditions need not be identical. Equal values may be shown once. Read-outs that look alike come from different tables or passages of the source.
# B1: Pyruvate kinase type III (Oryctolagus caniculus) (enzyme)
# chain: not shown
# B2: Enolase 1 (S. cerevisiae) (enzyme, UniProt P00924 2-437, looked up)
# chain: AVSKVYARSVYDSRGNPTVEVELTTEKGVFRSIVPSGASTGVHEALEMRDGDKSKWMGKGVLHAVKNVNDVIAPAFVKANIDVKDQKAVDDFLISLDGTANKSKLGANAILGVSLAASRAAAAEKNVPLYKHLADLSKSKTSPYVLPVPFLNVLNGGSHAGGALALQEFMIAPTGAKTFAEALRIGSEVYHNLKSLTKKRYGASAGNVGDEGGVAPNIQTAEEALDLIVDAIKAAGHDGKVKIGLDCASSEFFKDGKYDLDFKNPNSDKSKWLTGPQLADLYHSLMKRYPIVSIEDPFAEDDWEAWSHFFKTAGIQIVADDLTVTNPKRIATAIEKKAADALLLKVNQIGTLSESIKAAQDSFAAGWGVMVSHRSGETEDTFIADLVVGLRTGQIKTGAPARSERLAKLNQLLRIEEELGDNAVFAGENFHHGDKL
# Key:
# [1] = biological target: the molecule itself; assay: native MS
# [2] = biological target: the molecule itself; assay: native MS; remark: listed apart in the source
Protein,stoichiometry N [1],stoichiometry N [2]
B1,2 and 4,–
B2,–,2
